Measurements taken from patent publication US20240368260A1 (INSTITUT NATIONAL DE LA SANTE ET DE LA RECHERCHE MEDICALE, published 2024).

Tests used:
[1] = target: T1, recombinant human βIG-H3 (human, UniProt Q15582 24-683); test: SPR single cycle kinetics, mAb captured via anti-human IgG (Fc) on CM5, hβIG-H3 5-100 nM as analyte, 1:1 model; SCK2 Fc4
T1 construct: Bought recombinant protein; also called rhβIG-H3; rhbIG-H3
T1 sequence (looked up): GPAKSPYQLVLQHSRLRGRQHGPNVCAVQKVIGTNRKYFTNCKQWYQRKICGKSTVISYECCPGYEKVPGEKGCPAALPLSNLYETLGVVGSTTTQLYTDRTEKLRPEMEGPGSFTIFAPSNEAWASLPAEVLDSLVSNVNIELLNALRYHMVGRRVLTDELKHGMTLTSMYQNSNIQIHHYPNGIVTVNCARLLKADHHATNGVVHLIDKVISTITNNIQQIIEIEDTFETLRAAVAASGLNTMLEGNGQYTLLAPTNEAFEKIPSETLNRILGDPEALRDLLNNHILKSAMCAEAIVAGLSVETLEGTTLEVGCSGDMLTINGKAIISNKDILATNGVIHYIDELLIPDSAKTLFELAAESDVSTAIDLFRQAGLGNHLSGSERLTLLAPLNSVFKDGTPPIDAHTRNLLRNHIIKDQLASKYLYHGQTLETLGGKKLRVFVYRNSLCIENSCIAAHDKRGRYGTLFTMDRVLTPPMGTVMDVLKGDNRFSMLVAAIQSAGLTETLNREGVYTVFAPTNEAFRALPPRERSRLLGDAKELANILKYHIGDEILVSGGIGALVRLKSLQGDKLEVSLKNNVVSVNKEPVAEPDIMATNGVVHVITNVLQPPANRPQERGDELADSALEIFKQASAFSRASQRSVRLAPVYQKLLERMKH
Protocol: (§1) Anti-Human IgG (Fc) antibody is chemically grafted on a CM5 sensorchip using amine coupling according to the Cytivia 22064888AF notice. Briefly, surface is first activated by injection of a NHS-EDC mixture. Then, several injections (3 on the 10 available on the kit) of Anti-Human IgG (25 μg/ml in immobilization buffer) adjusting the contact time are performed. Finally, the surfaces are deactivated with ethanolamine 1M pH 8.5.
(§2) A negative control Ab is immobilized on sensor flowcell 1 (Fc 1) and positive control (chimeric 18B3 mAB) on Fc 2. 18B3 variants Abs are immobilized on Fc3 and Fc4:
(§3) Injection of increasing concentrations (5; 10; 25; 50; 100 nM) of antigen (hβIG-H3) during 180 s is performed on each flowcell. Short dissociations are performed in RB between each antigen concentration. After injection of the highest antigen concentration (100 nM), a dissociation in RB is recorded during 3600 s. [0348] Three similar cycles with five injections of RB are carried out before the cycle of Antigen in order to perform double subtraction procedure (Blank run). [0349] Three similar cycles with five injection of RB and a dissociation time of 600 s are performed before the blank runs in order to stabilize the system (Startup run).

[2] = target: T1, recombinant human βIG-H3; test: SPR single cycle kinetics, mAb captured via anti-human IgG (Fc) on CM5, hβIG-H3 5-100 nM as analyte, 1:1 model; Fc4, first of two runs (run label misplaced in print)
Protocol: as §1, §2, §3

[3] = target: T1, recombinant human βIG-H3; test: direct ELISA on coated rhβIG-H3, anti-human IgG-HRP

B1: 18B3 H330-V1.2/L228-V1 (antibody, human IgG1, kappa, V domains shown)
VH: QVQLVESGGGVVQPGGSLRLSCAASGFTFSDYYMYWVRQAPGKGLEWVATISDGGIYKYYADSVKGRFTISRDSSKNTLYLQMNSLRAEDTAVYYCVRGWDRYDSWFASWGQGTTVTVSS
VL: DIVMTQSPLSLPVTPGEPASMSCRSSQSLLYSSNQKNYLAWYLQKPGQSPQLLIYWGSTRESGVPDRFSGSGSGTDFTLKISRVEAEDVGVYYCQQYYRYPYTFGQGTKLEIKR
notes: also called H-330/L-228 V1.2
[1]
  Kd: 0.171 nM
  koff: 0.000478 s⁻¹
  kon: 2.79e+06 M⁻¹ s⁻¹
[2]
  Kd: 0.12 nM
  koff: 0.000559 s⁻¹
  kon: 4.66e+06 M⁻¹ s⁻¹
[3]
  ELISA Titer: 0.0036 µg/mL
